Results: patent US20250122271A1, “ANTI-DKK1 ANTIBODY, PHARMACEUTICAL COMPOSITION THEREOF, AND USE THEREOF” (SHANGHAI JUNSHI BIOSCIENCES CO., LTD., priority 2022, published 2025)
Like-named read-outs stand apart in the source and are kept apart here.

T1: human DKK1 antigen (Sino Biological, 10170-H08H) (human, UniProt O94907 32-266)
T1 chain: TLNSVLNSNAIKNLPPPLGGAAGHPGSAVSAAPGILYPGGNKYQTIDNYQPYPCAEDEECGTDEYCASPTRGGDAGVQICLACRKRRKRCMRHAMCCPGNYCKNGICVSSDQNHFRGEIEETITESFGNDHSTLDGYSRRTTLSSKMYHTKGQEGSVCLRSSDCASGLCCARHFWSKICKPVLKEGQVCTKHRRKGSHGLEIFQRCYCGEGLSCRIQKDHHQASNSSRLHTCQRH

T2: human DKK1 antigen (Sino Biological, 10170-H08H) (human, UniProt O94907 32-266)
T2 construct: also called huDKK1; hDKK1
T2 sequence (looked up): T1 chain

T3: human DKK1 (Homo sapiens, UniProt O94907)
T3 construct: purchased Sino Biological 10170-H08H
T3 sequence (O94907 32-266): T1 chain

B1: chimeric antibody chi-8 (antibody, human IgG4 S228P, kappa, V domains shown)
VH: EVQLQQSGPELVKPGASVKIFCKTSGYTFTENTMHWVKQTHGKSLEWIGGINPHKGGTSYNQKFKGKATLTVDKSSSTACMELRSLTSEDSTVYYCARDWLGAMDYWGQGTSVTVSP
VL: ETTVTQSPASLSMAIGEKVTIRCITSTDIDDDMNWYQQKPGEPPKLLISEGNTLRPGVPSRFSSSGYGTDFVFTIENMLSEDVADYYCLQSDNLPYTFGGGTKLEIKR
notes: hIgG4 heavy constant region and human kappa constant region; also called No. 2 chimeric antibody molecule
B2: chi-1: chimeric antibody 1VH+1VL (SEQ ID NO: 37/38) (antibody, V domains shown)
VH: MGWSWIFLFLLSGTAGVLSEVQLQQSGPELVKPGASVRISCKTSGYTFTEYTMHWVKQSHGKSLEWIGVIDPSNGDTSYNQKFKGRATLTVDKSSSTAYMDLRSLTSEDSALYYCSSTTGPWFACWGQGTLVTVSA
VL: MSSAQFLGLLLLCFQGTRCDIQMTQTTSSLSASLGDRVTINCRASQDISNYLNWYQQKPDGTVKLLIYYKSRLHSGVPTRFSGSGSGTDFSLTISNLVQEDIATYFCQQVHTLPPTFGGGTKLEIK
B3: chimeric antibody chi-1 (antibody, human IgG4 S228P, kappa, V domains shown)
VH: EVQLQQSGPELVKPGASVRISCKTSGYTFTEYTMHWVKQSHGKSLEWIGVIDPSNGDTSYNQKFKGRATLTVDKSSSTAYMDLRSLTSEDSALYYCSSTTGPWFACWGQGTLVTVSA
VL: DIQMTQTTSSLSASLGDRVTINCRASQDISNYLNWYQQKPDGTVKLLIYYKSRLHSGVPTRFSGSGSGTDFSLTISNLVQEDIATYFCQQVHTLPPTFGGGTKLEIKR
notes: hIgG4 heavy constant region and human kappa constant region; also called No. 1 chimeric antibody molecule
B4: chi-15: chimeric antibody 3VH+3VL (SEQ ID NO: 41/42) (antibody, V domains shown)
VH: MGWNCFILFLVATATGVHSQVQLQQPGAELVKPGASVKMSCKASGYTFTSYNMLWVKQTPGQGLEWIGVIFPGNGDTSYNPKFKGKAALTADKSSSTAYMQLSSLTSEDSAVYYCARDGYPSMDYWGQGTSVTVSS
VL: MLSLAPLLSLLLLCVSDSRAETIVTQSPASLSVATGEKVTIRCITSTDIDDDMNWYQQKPGEPPKLLISEGNSLRPGVPSRFSSSGYGTDFVFTIENTLSEDVADYYCLQFNNMPLTFGAGTKLELK
B5: chi-21 (antibody, V domains shown)
VH: QVQLQQPGAELVKPGASVKMSCKASGYTFTSYNMLWVKQTPGQGLEWIGVIFPGNGDTSYNPKFKGKAALTADKSSSTAYMQLSSLTSEDSAVYYCARDGYPSMDYWGQGTSVTVSS
VL: QIVLTQSPVIMSASPGEKVTMTCSASSSVSYMYWYQQKPGSSPRLLIYDTSNLASGVPVRFSGSGSGTSYSLTISRMEAEDAATYYCQQWSSYPPALTFGAGTKLELK
B6: chimeric antibody chi-15 (antibody, human IgG4 S228P, kappa, V domains shown)
VH: B5 VH
VL: ETIVTQSPASLSVATGEKVTIRCITSTDIDDDMNWYQQKPGEPPKLLISEGNSLRPGVPSRFSSSGYGTDFVFTIENTLSEDVADYYCLQFNNMPLTFGAGTKLELKR
notes: hIgG4 heavy constant region and human kappa constant region; also called No. 3 chimeric antibody molecule
B7: chi-8: chimeric antibody 2VH+2VL (SEQ ID NO: 39/40) (antibody, V domains shown)
VH: MGWSWIFLFLLSGTAGVLSEVQLQQSGPELVKPGASVKIFCKTSGYTFTENTMHWVKQTHGKSLEWIGGINPHKGGTSYNQKFKGKATLTVDKSSSTACMELRSLTSEDSTVYYCARDWLGAMDYWGQGTSVTVSP
VL: MFSLALLLSLLLLCVSDSRAETTVTQSPASLSMAIGEKVTIRCITSTDIDDDMNWYQQKPGEPPKLLISEGNTLRPGVPSRFSSSGYGTDFVFTIENMLSEDVADYYCLQSDNLPYTFGGGTKLEIK

Assays:
[1] = system: A549 cells; experiment: A549 subcutaneous transplantation tumor model in CB17/SCID female mice; assay type: in vivo
Experimental: The experimental animals were CB17/SCID female mice, and A549 cells (5× 10^6) were subcutaneously inoculated into the mice to establish a subcutaneous transplantation tumor model. […] The groups each had 6 animals, and the animals in all the groups were subjected to intraperitoneal injection. […] The efficacy was evaluated based on tumor growth inhibition (TGI) (FIG. 9).

[2] = system: advanced gynecological cancers; settings: patients with high expression of DKK1, stage 2 clinical; cited from earlier work
[3] = molecular target: T1, human DKK1 antigen (Sino Biological, …); experiment: ELISA blocking of DKK1-LRP6
[4] = molecular target: T1, human DKK1 antigen (Sino Biological, …); experiment: ELISA binding; given as IC50
[5] = molecular target: T2, human DKK1 antigen (Sino Biological, …); experiment: ELISA, coated human DKK1
Experimental: (§1) Detection of the binding activity of the chimeric antibodies for human DKK1 by ELISA: After the plate was coated with 2.0 μg/mL human DKK1 antigen (Sino Biological, 10170-H08H) for 90 min and then blocked with 2% BSA for 90 min, the gradiently diluted anti-DKK1 chimeric antibodies and positive control antibody DKN-01 (starting at 1 μg/mL, diluted in a 2.5-fold gradient to 1.64 ng/ml, with a total of 8 concentrations) were added, and the mixture was incubated for 60 min. After the plate was washed, the 5000-fold diluted HRP-conjugated goat anti-human IgG (Fc specific) (Sigma, A0170) secondary antibody was added for incubation, and 0.1 mg/mL TMB (Sigma, T2885) was added for color development. Finally, the reaction was stopped with a 2 M hydrochloric acid solution. The plate was read at 450 nm/620 nm using a Thermo Scientific microplate reader, and the EC50 values of the chimeric antibodies (FIG. 3) were obtained by fitting using a four-parameter logistic regression (4PL) model.

[6] = molecular target: T3, human DKK1; experiment: Luciferase reporter gene assay in 293 TOP cells with Wnt3a and human DKK1 (recovery of Wnt signaling); assay type: cell-based; settings: screening at protein and cellular level
Experimental: The cellular biological activity of the DKK1 antibodies was tested using target cells 293 TOP overexpressing LRP5/6 and comprising the luciferase reporter system and recombinant Wnt3a (R&D systems, cat #5036-WN), as well as human DKK1 (Sino Biological, cat #10170-H08H) protein. The target cells 293 TOP were placed into a 96-well flat-bottomed white plate (corning, cat #3917) at 50,000 cells per well for incubation overnight. The supernatant was then discarded, and the gradiently diluted antibodies to be tested were each added for pre-incubation at 37° C. for 0.5 h. After the pre-incubation was completed, the diluted Wnt3a (R&D systems, cat #5036-WN) and human DKK1 protein, at working concentrations of 0.05 μg/mL and 0.1 μg/mL, respectively, were added into the mixture containing the cells and antibody for co-incubation at 37° C. for 6-8 h. Finally, the luciferase substrate One-Lite (Vazyme, cat #DD1203-03-AB) was added and the chemiluminescence values of the hybridoma antibodies were measured.
(§2) The cellular biological activity of the hDKK1 chimeric antibodies was tested using target cells 293 TOP overexpressing LRP5/6 and comprising the luciferase reporter system and recombinant Wnt3a (R&D systems, cat #5036-WN), as well as human DKK1 (Sino Biological, cat #10170-H08H) protein.
The target cells 293 TOP were placed into a 96-well flat-bottomed white plate (corning, cat #3917) at 50,000 cells per well for incubation overnight. […] Finally, the luciferase substrate One-Lite (Vazyme, cat #DD1203-03-AB) was added and the chemiluminescence values of the chimeric antibodies were measured (FIGS. 5A-5C).
as §2, with “DKK1” for “hDKK1 chimeric”, “protein. […] Finally, the luciferase substrate One-Lite (Vazyme, cat #DD1203-03-AB) was added and the chemiluminescence values of the humanized antibodies were measured. […]” for “protein.”

[7] = molecular target: T3, human DKK1; experiment: Binding of antibodies to human DKK1 by ELISA; settings: chimeric antibodies, compared among each other
Experimental: as §1
Detection of the binding of the humanized antibodies to DKK1 by ELISA: The plate was coated with 2.0 μg/mL human DKK1 antigen (Sino Biological, 10170-H08H) for 90 min and then blocked with 2% BSA for 90 min. After the plate was washed, the gradiently diluted anti-DKK1 humanized antibodies (starting at 1 μg/mL, diluted in a 10-fold gradient to 1 ng/ml, with a total of 4 concentrations) were each added, and the mixture was incubated for 60 min. After the plate was further washed, the 5000-fold diluted HRP-conjugated goat anti-human IgG (Fc specific) (Sigma, A0170) secondary antibody was added for incubation for 30 min, and 0.1 mg/mL TMB (Sigma, T2885) was added at 100 μL per well for color development for 10 min. Finally, a 2 M hydrochloric acid solution was added at 50 μL per well to stop the reaction. The plate was read at 450 nm/620 nm using a Thermo Scientific microplate reader. The EC50 values of the humanized antibodies were obtained by fitting using a four-parameter logistic regression (4PL) model.

[8] = molecular target: T1, human DKK1 antigen (Sino Biological, …); experiment: ELISA binding
[9] = molecular target: T1, human DKK1 antigen (Sino Biological, …); experiment: ELISA binding
[10] = molecular target: T1, human DKK1 antigen (Sino Biological, …); experiment: ELISA blocking of DKK1-LRP6

Molecule | IC50 [3] | binding result [5] | in vitro activity in the screening of the chimeric antibodies of Example 4 [6] | relative binding activity for human DKK1 (ELISA) [7] | also measured
CC(=O)O[C@H]1C(=O)[C@@]2(C)[C@H]([C@H](OC(=O)c3ccccc3)[C@]3(O)C[C@H](OC(=O)[C@H](O)[C@@H](NC(=O)c4ccccc4)c4ccccc4)C(C)=C1C3(C)C)[C@]1(OC(C)=O)CO[C@@H]1C[C@@H]2O [paclitaxel, reference compound] | – | – | – | – | tumor growth inhibition (TGI) ([1]; day 35, paclitaxel 20 mg/kg intraperitoneal twice per week for 4 weeks): 60.48%
DKN-01: positive control anti-DKK1 monoclonal antibody; heavy and light chains SEQ ID NO: 108 and SEQ ID NO: 109 | – | – | – | – | tumor growth inhibition (TGI) ([1]; day 35 after tumor inoculation, 5 mg/kg intraperitoneal once per week for 4 weeks): 23.27%; disease control rate [2]: 57%; objective remission rate [2]: 14%
B1 | 0.309 µg/mL | binds | – | – | EC50 [4]: 0.0434 µg/mL
B2 | – | – | best in vitro activity | superior activity | –
B3 | 0.355 µg/mL | binds | – | – | EC50 [4]: 0.0238 µg/mL
B4 | – | – | best in vitro activity | superior activity | –
B5 | 0.92 µg/mL | – | – | – | EC50 [8]: 0.816 µg/mL
B6 | 0.0992 µg/mL | binds | – | – | EC50 [9]: 0.0244 µg/mL; EC50 [8]: 0.0238 µg/mL; IC50 [10]: 0.258 µg/mL
B7 | – | – | best in vitro activity | superior activity | –
